The supplement of paper PMC7125110
± gives the standard error. Fewer inactive variants are shown than the library holds.

B1: glmS ribozyme (parent)
chain: AUAAAAGCGCCAGAACUACAGAAAUGUAGUUGACGAGGAGGAGGUUUAUCGAAUUUUCGGCGGAUGCCUCCAAA

Assays:
Conditions in all cases: with glucosamine-6-phosphate
glucosamine-6-phosphate [1] = variants of: B1; assay: self-cleavage kobs at 40 uM GlcN6P; higher = faster cleavage; RNA array
Procedure, shortened: (§1)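 E. coli RNA polymerase transcribed barcoded ribozyme variants in situ on sequenced MiSeq chips, which were tracked via a hybridised Cy3 probe at 37 °C. Tiles were imaged over ~14 h after glucosamine-6-phosphate (40 μM to 10 mM) in HEPES/KCl/Mg(OAc)2 buffer was flowed in. Normalised per-tile medians were fit to one- or two-exponential decays for kobs, and kcat and KM came from weighted Michaelis–Menten fits.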

glucosamine-6-phosphate [2] = variants of: B1; assay: self-cleavage kobs at 160 uM GlcN6P; higher = faster cleavage; RNA array
Procedure, shortened: as §1

glucosamine-6-phosphate [3] = variants of: B1; assay: self-cleavage kobs at 2500 uM GlcN6P; higher = faster cleavage; RNA array
Procedure, shortened: as §1

glucosamine-6-phosphate [4] = variants of: B1; assay: self-cleavage kobs at 10000 uM GlcN6P; higher = faster cleavage; RNA array
Procedure, shortened: as §1

glucosamine-6-phosphate [5] = variants of: B1; assay: self-cleavage kobs at 640 uM GlcN6P; higher = faster cleavage; RNA array
Procedure, shortened: as §1

Variant	self-cleavage kobs at 40 uM GlcN6P (glucosamine-6-phosphate [1]) [s⁻¹]	self-cleavage kobs at 160 uM GlcN6P (glucosamine-6-phosphate [2]) [s⁻¹]	self-cleavage kobs at 2500 uM GlcN6P (glucosamine-6-phosphate [3]) [s⁻¹]	self-cleavage kobs at 10000 uM GlcN6P (glucosamine-6-phosphate [4]) [s⁻¹]	self-cleavage kobs at 640 uM GlcN6P (glucosamine-6-phosphate [5]) [s⁻¹]
G60A U65C	< 1e-05	< 1e-05	< 1e-05	< 1e-05	–
U54G C67G	0.000338 ± 4.2e-05	0.000142 ± 4.5e-05	0.000568 ± 0.00012	0.00398 ± 0.0006	0.00079 ± 0.00024
U54A C61A G66U	< 1e-05	–	–	–	–
U49C U54G	< 1e-05	< 1e-05	–	< 1e-05	< 1e-05
U56C G60U C68U	< 1e-05	–	–	–	–
C50A G63U	< 1e-05	< 1e-05	–	< 1e-05	< 1e-05
U49C G60A	< 1e-05	< 1e-05	–	< 1e-05	–
U54A G63C	< 1e-05	–	–	< 1e-05	–
U54A G63A	< 1e-05	< 1e-05	–	–	< 1e-05
A52C A64U	< 1e-05	< 1e-05	< 1e-05	< 1e-05	< 1e-05
G51U G59A	< 1e-05	–	–	< 1e-05	–
G59A G62C	< 1e-05	< 1e-05	< 1e-05	< 1e-05	< 1e-05
A52U G63U	< 1e-05	< 1e-05	–	< 1e-05	–
U49G U54G	3.67e-05 ± 1.4e-05	–	–	0.000838 ± 0.00014	–
A52C U55C	< 1e-05	< 1e-05	–	–	–
G59A G60U	< 1e-05	–	< 1e-05	< 1e-05	< 1e-05
U49G C58G	< 1e-05	–	–	–	–
C50G G60C C67U	6.17e-05 ± 1.7e-05	–	0.000124 ± 3.4e-05	4.29e-05 ± 1.2e-05	0.000438 ± 0.00012
G51U A53G A64G U65G	< 1e-05	–	–	< 1e-05	–
U56G G62A G63A	< 1e-05	–	–	–	–
U55G G60U	< 1e-05	< 1e-05	< 1e-05	–	< 1e-05
U56A G62C	< 1e-05	–	< 1e-05	< 1e-05	–

Variant	self-cleavage kobs at 40 uM GlcN6P (glucosamine-6-phosphate [1]) [s⁻¹]	self-cleavage kobs at 160 uM GlcN6P (glucosamine-6-phosphate [2]) [s⁻¹]	self-cleavage kobs at 2500 uM GlcN6P (glucosamine-6-phosphate [3]) [s⁻¹]	self-cleavage kobs at 10000 uM GlcN6P (glucosamine-6-phosphate [4]) [s⁻¹]	self-cleavage kobs at 640 uM GlcN6P (glucosamine-6-phosphate [5]) [s⁻¹]
U54G U55A	0.00109 ± 0.00018	–	–	0.0495 ± 0.015	–
U57C C61U	< 1e-05	< 1e-05	< 1e-05	< 1e-05	< 1e-05
U55A G60A C67U	< 1e-05	–	–	–	–
G60U U65G	< 1e-05	–	< 1e-05	< 1e-05	< 1e-05
U55A C71G	8.5e-05 ± 2.2e-05	0.000248 ± 9.2e-05	0.000736 ± 0.00023	0.00278 ± 0.0012	0.00136 ± 0.00036
U55A C71A	0.000472 ± 6.9e-05	0.000925 ± 0.00023	–	0.0132 ± 0.0032	0.00299 ± 0.00056
C50G G63A	5.7e-05 ± 1.5e-05	0.000484 ± 0.00023	3.78e-05 ± 1.6e-05	–	4e-05 ± 1.7e-05
G51U G60U	< 1e-05	< 1e-05	< 1e-05	< 1e-05	< 1e-05
A52U C58G	< 1e-05	–	–	< 1e-05	< 1e-05
A52U C58A	< 1e-05	–	–	–	< 1e-05
C50G G62A C68A	6.73e-05 ± 1.6e-05	–	–	9.9e-05 ± 2.3e-05	–
A53U C67U	0.000272 ± 2.9e-05	0.000713 ± 8.9e-05	0.0104 ± 0.0027	0.0214 ± 0.0049	0.00132 ± 0.00019
U49G G51A G63A	< 1e-05	–	–	< 1e-05	–
U56C C58U G60U	< 1e-05	< 1e-05	< 1e-05	–	–
G59A A64G U69G	< 1e-05	–	–	–	–
G51C	< 1e-05	< 1e-05	< 1e-05	< 1e-05	< 1e-05
U56C G63U	< 1e-05	< 1e-05	–	< 1e-05	–
G51C C61U	< 1e-05	–	–	–	–
A52C A53U G59A A64C	< 1e-05	–	–	–	< 1e-05
G59U G63U	< 1e-05	< 1e-05	< 1e-05	–	< 1e-05
U56C G59C	< 1e-05	–	–	< 1e-05	–
C50G C61U	3.66e-05 ± 1.1e-05	6.61e-05 ± 1.4e-05	0.000423 ± 0.0002	–	9.4e-05 ± 1.3e-05
